Measurements from paper PMC7541481, “A unique clade of light-driven proton-pumping rhodopsins evolved in the cyanobacterial lineage” (Scientific Reports, 2020).

Experiments:
Asp97 = Asp97 (UniProt position 97, VFRYIDWLLTV); settings: cited from earlier work
Asp121 = Asp121 (UniProt position 121, AYRYVDWLLTV); settings: cited from earlier work
Asp85 = Asp85 (UniProt position 98, WARYADWLFTT); settings: cited from earlier work
N2098R = target: T1, N2098R (Calothrix sp., UniProt Z9R0O1FWN2); assay: X-ray crystal structure ([…] Å); retinal isomer HPLC; type: binding; settings: covalent; Schiff base with Lys204; in meso crystals
T1 construct: crystal: E. coli cell-free synthesis; retinal analysis: synthetic codon-optimized gene in pET21a, E. coli, C-terminal His-tag, DDM-solubilized
T1 sequence (Z9R0O1FWN2 8-254): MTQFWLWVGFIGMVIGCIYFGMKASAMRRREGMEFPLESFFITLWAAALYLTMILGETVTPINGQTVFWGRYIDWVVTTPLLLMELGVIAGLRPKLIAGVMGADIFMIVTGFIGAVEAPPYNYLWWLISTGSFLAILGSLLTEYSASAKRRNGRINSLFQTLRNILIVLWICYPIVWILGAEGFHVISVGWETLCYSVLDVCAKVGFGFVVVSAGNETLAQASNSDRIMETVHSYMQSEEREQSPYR

N4075R = target: T2, N4075R (Tolypothrix sp., UniProt Z9F5K4BE25); assay: X-ray crystal structure ([…] Å); type: binding; settings: covalent; Schiff base lysine; isomer not stated for this protein
T2 construct: E. coli cell-free synthesis for crystallization, in meso
T2 sequence (Z9F5K4BE25 8-259): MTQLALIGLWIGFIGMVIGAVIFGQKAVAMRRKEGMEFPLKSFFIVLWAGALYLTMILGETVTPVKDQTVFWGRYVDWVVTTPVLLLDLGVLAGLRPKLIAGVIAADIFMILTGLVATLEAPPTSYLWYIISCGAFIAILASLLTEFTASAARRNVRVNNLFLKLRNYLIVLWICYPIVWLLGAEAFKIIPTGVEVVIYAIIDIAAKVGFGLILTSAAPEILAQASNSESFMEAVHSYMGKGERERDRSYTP

Asp74 (position 74, …) = assay: UV-vis; settings: room temperature (approx. 25°C); 50 mM NaCl; seven-mix buffer (Tris, citric acid, MES, HEPES, MOPS, CHES, CAPS; 10 mM each); dark/unphotolysed state under room light, all-trans retinal bound, detergent-solubilised, folded (reversibility checked)

Molecule: Green-absorbing proteorhodopsin (GPR) (uncultured marine gamma proteobacterium EBAC31A08)
- pKa (Asp97): Approx. 7.9

Molecule: Gloeobacter rhodopsin (GR) (Gloeobacter violaceus PCC 7421)
- pKa (Asp121): Approx. 5.9

Molecule: Bacteriorhodopsin (BR) (Halobacterium salinarum)
- pKa (Asp85): Approx. 2.6

Molecule: CC1=C(/C=C/C(C)=C/C=C/C(C)=C/C=O)C(C)(C)CCC1 [all-trans retinal]
- X-ray crystal structure (2.65 Å); retinal isomer HPLC (N2098R): the isomeric state of retinal was predominantly all-trans
- X-ray crystal structure (1.9 Å) (N4075R): Since the two structures were almost identical, only the structure of N2098R is described

B1: Cyanorhodopsin N2098R (Calothrix sp. NIES-2098) (protein)
chain: T1 sequence (Z9R0O1FWN2 8-254)
- pKa (Asp74 (position 74, …)): < 2.0
